Here are results for 10 sequences from the DeepSol protein solubility set.

This series can be described thus: soluble on expression in E. coli; label from the status in PepcDB or PDB records.
Consider “MIRSSIDLMLKTGAAALAKNFENRDPIAGQREILARLVVAAAVTRFGRDHGFAELAGEPFDRLYAEFRRRVPIRTYADFWRDYFSAWQSDANGSQRLLLEDVTWPGRIPFFCETSGTTAPTKYIPFSREMFAANKRAAIDLTACYLHRTPRSRLFQGKLLYMAGNTSLTDLGNGVQSGDMSGITLRHRPFYLRPFVAPGMAVSALPWEEKVVELAGLLLSDRSIRGISGVPPWIILLLQRVEEMGHRPIAELLPNLELIIHGGTSMKPYRREFDGLFPRRRPHFLEVLPSSEAFMAFQLPGEDRMRLVPHYGAFFEFIPIEDLDEGGTPAADAPTVPLEAVETGRRYAVILTTCAGLWRYHIGDTLRFTALSPHFIEFTGRDRFLDRFEEKVTQGEVEEAVARLNQLDGIEVREFMVGPDIGERRHLWVLAVGEMNERSGDVLGRHLDATLRSLNADYATFRSQGRIAGPRVVTVSGDVIYRWSKEVRGKLGGQSKIPHVDPTVEGEMVASLAAFARRFQACWIADSFQGFGPTGRVKVQNSSNFTGSRSLPERTRPSSSVVLEHHHHHH”, for which the “soluble on expression in E. coli” value is recorded as “not soluble”.

Take “MGTWPLTVTKEMEKRKELFRRDPNRALIGAGGYKAADEAIVHDAAIALALGKNVLLKGPTGSGKTRLAETLSALFGQPMHSINCSVDLDAEALLGFKTIVHKNSQAVIEYVPGPVIQAMTKGHLLYIDEINMAKPETLPILNSVLDYRRRLTNPLTGDIVQAKQTFGVIAAINEGYIGTVPLNEALKNRFVVINVPYVQGETLKSVLLAQTTLTDETLIDRFVALSADLLAQVRNGQIAEEAASVRALLDACDLAAYMPPLRAIERSIVDKLDDERERAAVRNIAETWFDE”: the “soluble on expression in E. coli” value is recorded as “not soluble”. As for “MSLAKPIEAHTVSPVNPNAQQTTKTVMNWLAHLPNRTENRVLSGAFGGYSHDTFSMAEADRIRSATGQSPAIYGCDYARGWLETANIEDSIDVSCNGDLMSYWKNGGIPQISLHLANPAFQSGHFKTPITNDQYKKILDSSTVEGKRLNAMLSKIADGLQELENQGVPVLFRPLHEMNGEWFWWGLTSYNQKDNERISLYKQLYKKIYHYMTDTRGLDHLIWVYSPDANRDFKTDFYPGASYVDIVGLDAYFQDAYSINGYDQLTALNKPFAFTEVGPQTANGSFDYSLFINAIKQKYPKTIYFLAWNDEWSAAVNKGASALYHDSWTLNKGEIWNGDSLTPIVEEGHHHHHH”, the “soluble on expression in E. coli” value is recorded as “soluble”. As to “GPGSMARITVELLRRRAEHNEGCLSNLKEIALHQQDIEKIDLIGDACRQLEIIYLCNNYISRIEGLRHLKWLKYLNLAVNNITVIDGLQGCEALERLDLTLNFIAEPTSVQTLLANPFLESLHLTGNPCTKTEGYRAYVIHSLPQLKELDGDEIIRAERITARQAEDVVIEVAEEEAVRVREAERIKQEMLAKGIDPFPPKYNDKGERVYGHTPEERLQILHEQQEMERKKREEQSTPQPGSIAALHQELKRQQQPSQRLTAEEERSKFGRLLLRNEPRVPFHMNQDDAAEFVLTVDPGKFISTTLLSVQVEVDVVRVFIKGKLLQVPVEDELAADAAQVQRSTTTGQLKVMVPYAPEVQERRGGARARLRGLREVTEKASSATGTSAASTTPPPTASPPKVAEPPTRSTLLEIEGRMRGSSSPSLSINQPGTTGTLSSSGKNTTTASSGIVKSVKDISPVPSTMKVSADAATLASQSMTAVLTPTTAASSH”, the “soluble on expression in E. coli” value is “soluble”. For “MTSVLDPDRALEDEAKDKFGFVGIAKQLAPPIIEAAKGEGMVIGLEGRWGSGKTSLLNFLRAELQASKKSGIHTITIAPWLNGDTSSLVLSLLEPMAAVLKQKEDELAESYGEGQSATKERVAEVGRLLRAYGPKTARRIASLANVAGYVLPGAQAIGGALAASASAADEIFDVGPTPSELKQELAVKIQELNVGFIVILDDLDRLEPEQAVEVVRLVRSVADFPKVVYLMCYDREVLSEALKTGLKVSDGDLFLQKIVQLTFNIPLPEPFDLRTQFRNEAKAIYFEATGVDLDGAILHDLTYAVDREGMGLSTPREVKLALNSIRFVFSQVKDDVYFPDLCRLHLIKTTNYKLYKWLEIYLSVRSVLVTGDATVSEDEKTKMGEELKMLLPASGPGSVHSIWSLARFIPGVVDTEKVSERVFNAINSSAISEAVRLKRLGSPLHYRFYFALTGPKTVMPDEDFNAILELARNDIDQLESRLAAETMKRRDSGRTWFEHVLDRLDDDCISSLDESQLSGILHALSGMMDIAMKEDGEVRSFALSLDGIANIVAKRCLVRLRELNPEKQANTVRSMAQDGKAINWLVGKFFRSQLFNHGKVGERAERPEQWEISEDLLDDIIEILRKRLSEQDIKNLIPNLPNVSAYLYGWMNLTDDDQAKNWVQEYSESDEGFLDILNHLRGWAMSDKVYYPLSEKTVSSFLDWNEVKTRLDGMQSGEFSDKLEHHHHHH”, the “soluble on expression in E. coli” value was “soluble”. For “MGSDKIHHHHHHVEKFDLENFPVSESAKNMIASVSDGFYDNSYVGKWLYEVMGQEYDTAREIAEDILNQLFPETATWGLMYHEIKWGLPVRENLPYEERRQLIYRKRDYRAPMTPYRMEGYLKTATGFDVRIADINDPGDYGFVAPHPNVFKAYFMGEGTLASKRARAMLNELKQSHTMFTMNDRTEIVSDNRNLEEMNLKKIIFHIAESFWYSDLLDGRKPLDGSSLLYPYMRYNLMLGFKYMLGGFTTPTDADLQKVKFRAEQKTENDVKAGAIRIASDIIFWNTHLLDGSWDLDGSHRLDVTRGYQLGVAIVAMVACAYNKVTDSMKVRSTYGLRSSSDARAAIRSEFEADFWNTVYLDGKLLLDGNAMLEHRGGNKRLEAAVTHHMGIEREDMDVEAQVITKTRNYWFLDGSNALDGKKNLNSIYRKEYIQ”, the “soluble on expression in E. coli” value is reported as “not soluble”. For “SLKTIDMKYLRLLAKEYPTIAKTATEIINLEAIMNLPKGTEHFLSDVHGEYSAFEQVLRNGSGVVKRKIRDIFGAELDDAEINSLSTLIYYPEEKMDLLASETEDLQAWYRTTLFRLIELCQYVASKYTRSKVRKAMPEDFAYILEELLHENYNEDDKKLYYEEILQHIISLGRAEEFISALSLLIQQLVVDHLHIVGDVYDRGPYPDKIMDTLMNYHSLDFQWGNHDILWMGAASGSRVCAANVIRISARYLNLDILEDSYGISLRPLALFADEVYKDDPCTYFQPKNEENINYSNAEITQIARMHKAISIIQFKLEGEIINRRKEFDMDHRLLLQFIDYKKGTIHLKGKEYLLLDSHFPTINPEKPYELTDAERELIGKITAAFKNCRRLQKHVQFLYSKGSMFLTYNGNLLYHGCIPLHEDGTFMEMKLRGEKYAGRSLLEQFEILTREAYVRPTGTKEKKYACDIVWYLWTGAISSLFGKSEMTTFERYFVAEKETHTEEKNPYYKLRNNELICKQILEEFGLDGECGHIINGHTPVKEGKGESPIKANGKMLVIDGGFAKAYHKETNLAGYTLLFNSYGLQLVSHQPFTTKEDAIKNETDILSTRQVIEMEINRKRVRDTDIGAKLSEQAEDLKLLLDAYRNGLLHENR” the value was “soluble”. For “MKKVLILSTSTGYGHNQAANSLMELIKNDDTEILVHDFLKENRFFDRSIVNGYDLCASSLGTLYGLLYKISNIKFINNLVSFLFLPVANKLAKFIHSFNPDLIITTHPLAVSILSYLKKRQIIKVPVISVVTDFKCHYTYVSKIIDHYIVACDFTKENLASKGIPKERISPFGIPVKQDFYKEDYHNYVENIIQSPLNILLMGGGMGLDNISKVLKTLIKNENPLNLTIVCGNNAELKEDLCKEYGHIKGNKKLNILGYTTEIPKIMKSSDLIITKPGGLTTTESLLSHLPMIIPFIIPGQESENREFLSKSNCAITINHLEELNKVINDLNKDNNKLINMRKSILDVLSSYSPEGTIKLCTKMLNDSYNKRRYLEHHHHHH” the value was “soluble”. For “MPRRPGTPRGPQGGRRLLVISASMGAGHDTVAAELVRRARERGDTAQTVDVLALLPYGLGAVLRCFYRGSVRHFPWAYAALYRLFLRPGAGRRPSGTPLARLAGDRLRELAARTGADVVVPVFHLGAQLTGHLRDRGLLPVPSVVLVIDFELHRQWLHPGNDHCLCLTEEAAREARGNTGTPAETCGPVVAPEFSAGRVPGAAQWRETFDRLGPGRPAVVLSAGAWGVGSHLDATVRLLVDHGYLPVVLCGDNQRLRRTLSGTPGVLALGWVTDMPGLLHAARALIDNAAGQTAVQALAAGLPVVGHRPIPGHGADGVRRMAALGVSEVAEDRTALLEALARLTAPGPDRRRRIAAGRALFTGNADALTLVTDLADAARADVRRLEHHHHHH”, the “soluble on expression in E. coli” value is “not soluble”. Regarding “RRTAEAERDRLNELLQIFTAAVPGVVYAKDLEGRMLVANRGTAELVGKPPEFFIGKTDLEFLDDEQQARVLMETDQRIMQSNVSEQIEEKVNLADGSAAIWLSTKAPLLDRNGDVIGLIGSSIDVT”, the “soluble on expression in E. coli” value is “not soluble”.
